Experiments:
[1] = molecular target: rat CD47 on rat red blood cells (rat) (UniProt P97829); assay: flow cytometry on rat RBCs
[2] = molecular target: cynomolgus CD47 on cynomolgus red blood cells (cynomolgus); assay: flow cytometry on cynomolgus RBCs
[3] = molecular target: mouse CD47 on mouse red blood cells (mouse) (UniProt Q61735); assay: flow cytometry on mouse RBCs
[4] = molecular target: human CD47 on human red blood cells (human) (UniProt Q08722); assay: flow cytometry on human RBCs

mouse CD47 on mouse red blood cells (mouse), sequence (Q61735 19-303): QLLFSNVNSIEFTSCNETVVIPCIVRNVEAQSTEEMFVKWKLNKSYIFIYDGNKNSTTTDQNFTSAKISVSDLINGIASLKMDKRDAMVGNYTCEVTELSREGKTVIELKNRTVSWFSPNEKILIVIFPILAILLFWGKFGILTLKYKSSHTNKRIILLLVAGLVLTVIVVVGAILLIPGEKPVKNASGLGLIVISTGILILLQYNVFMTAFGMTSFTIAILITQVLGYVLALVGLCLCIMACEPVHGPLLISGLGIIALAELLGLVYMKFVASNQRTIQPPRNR
rat CD47 on rat red blood cells (rat), sequence (P97829 19-303): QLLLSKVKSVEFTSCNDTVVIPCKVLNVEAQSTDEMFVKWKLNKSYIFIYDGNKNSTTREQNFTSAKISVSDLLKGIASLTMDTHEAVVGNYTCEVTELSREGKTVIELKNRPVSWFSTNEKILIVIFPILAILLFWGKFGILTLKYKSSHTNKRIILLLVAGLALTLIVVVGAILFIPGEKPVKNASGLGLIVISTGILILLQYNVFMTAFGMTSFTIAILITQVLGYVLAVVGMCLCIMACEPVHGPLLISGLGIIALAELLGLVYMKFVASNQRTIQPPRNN

Isotype control (antibody)
MFI [1]: 3.33 | MFI [2]: 3.95 | MFI [3]: 3.21 | MFI [4]: 3.65

— patent US20250277031A1
